Sequences and labels used below:
B1: OR4K15 (parent)
chain: GUUAACGGUCAUAGGCCAUGGAAACUAGGAGCACCAUUUCGCUGCCAGUGAAGAAAUGAACAAAGAAAAUCUGGGCCAGGCAGGCAUCAAAAGAAAUAGUCUUGCGCUCAACCAGAAAGUCUGUAAUCAUUUUAAGGGUA

This passage reports self-cleavage results from the RNAGym collection of RNA variant scans (doi:10.7554/elife.90254).

In the series the parent is B1. The series is described as follows: self-cleavage, relative activity (ratio to wild type); higher = more cleavage; in vitro, sequencing; the parent is a self-cleaving ribozyme.
For G28U A60G, the self-cleavage was 1.57. As for A24G A95G, the self-cleavage worked out at 1.71. As for G7A A111G, the figure is 0.03; as for A60C U130C, 1.4; as for U38C G44A, 1.16.

A55U A96C: the self-cleavage was determined as 0.74. For A30G A68G, the self-cleavage is 1.49.

As for A69C A96U, the self-cleavage is 0.68. As for A56G C128U, the self-cleavage was 0.54. As for G41A U133C, the figure is 1.98; as for U38C A110G, 0.17. Consider A54U U131C, for which the self-cleavage turned out to be 1.11. As to G31A A55G, the self-cleavage worked out at 1.7. On to C76A, for which the self-cleavage amounted to 0.1. As for A60G A114G, the figure is 0.31; as for A67U A96G, 1.65. As to G7A A18C, the self-cleavage was 1.98. On to U108C U122A, for which the self-cleavage came out at 0.01. For U97C C113A, the self-cleavage stood at 0.04.

Consider U130C U131A, for which the self-cleavage amounted to 0.25. Turning to U87C U100C, the self-cleavage turned out to be 2.72.

As to A55G, the self-cleavage stood at 1.06. For A52C A54G, the self-cleavage was determined as 1.34. As for U9C C112A, the figure is 0.03. On to U9C A86G, for which the self-cleavage stood at 1.18. For the variant A24U A27U, the self-cleavage came to 1.14. Regarding A82G G106C, the self-cleavage came to 0.01. In the case of A51U A63G it was 1.62. Regarding A59U A111U, the self-cleavage was 0.13.

As to A118G G137A, the self-cleavage is 0.86. A110C U131A: the self-cleavage is 0.17. As for U26C A55G, the self-cleavage worked out at 0.31. In the case of A24C A51U, the self-cleavage was determined as 1.33. On to A30G A126G, for which the self-cleavage stood at 1.23. In the case of A64U A69G, the self-cleavage amounted to 1.86.

Take U9C G136A: the self-cleavage worked out at 2.13. Consider A47U U139G, for which the self-cleavage turned out to be 1.4. As for A56G U57A, the self-cleavage was determined as 1.53. A33G U132A: the self-cleavage worked out at 0.51. With A18U U49A, the self-cleavage was 1.67. As to U72A A126U, the self-cleavage was 0.37. As to U97G U103C, the self-cleavage came to 0.69. In the case of U19A A96U, the self-cleavage worked out at 1.41.

Regarding U26A U100A, the self-cleavage came to 0.98. As for U19G A64G, the figure is 1.49. Turning to U39C G79U, the self-cleavage was 0.1. As for A30G A90G, the figure is 1.37; as for U43C U108A, 0.02.

Regarding G80A A135G, the self-cleavage was 0.31.

Regarding A23G A118U, the self-cleavage was found to be 0.78. As to A23G A118G, the self-cleavage came out at 0.75.

Take A24C A27G: the self-cleavage was 1.25. As for U19C A96U, the figure is 1.51. In the case of G83U U108C, the self-cleavage was 0.02. For the variant A13G G80C, the self-cleavage came out at 0.19.

In the case of A11U, the self-cleavage came to 0.87. In the case of A18G A62G, the self-cleavage is 1.54. As to A33U A98G, the self-cleavage was determined as 1.53. A96G G137U: the self-cleavage was 1.8.

Turning to A67G A126G, the self-cleavage was 1.21. Take A24G A36C: the self-cleavage amounted to 1.51. As for C6U U132A, the self-cleavage stood at 0.56. In the case of U108C A129G it was 0.01; in that of A22G A125G, 0.57; in that of U19A A111U, 0.09. As to A5U A95U, the self-cleavage was found to be 1.76. For A51G U131C, the self-cleavage was 1.25.

Take A52G C128A: the self-cleavage came to 0.64. For A52U A86G, the self-cleavage was determined as 1.61. With A62U A68G, the self-cleavage came to 1.4. As for U102C A126C, the figure is 1.47; as for U124A U133G, 0.43. A69U U103C: the self-cleavage stood at 0.51. In the case of A60G A78U it was 0.35. In the case of C6A U127C it was 0.49; in that of A47G C85U, 0.65; in that of A92U A94G, 1.76.

For A56G U139A, the self-cleavage came to 1.41. On to U72A A82U, for which the self-cleavage was 0.15. Regarding C40A A66U, the self-cleavage worked out at 1.52.

On to U72G A95G, for which the self-cleavage is 0.43.

For the variant A55U A114U, the self-cleavage came out at 0.03. Regarding G21U U122A, the self-cleavage is 1.42. Turning to A54G A91G, the self-cleavage was 1.18. Regarding A90G A91G, the self-cleavage was 0.55. With G48A A126U, the self-cleavage came to 1.9. Consider A24G A135G, for which the self-cleavage turned out to be 1.67.

As for U9C A129G, the self-cleavage was 1.37.

A18C A82G: the self-cleavage amounted to 0.44.

As to U37C C105U, the self-cleavage was determined as 0.15.

As to A18U A90G, the self-cleavage was 0.53. Consider A125C A126G, for which the self-cleavage worked out at 0.12. For the variant A51G A68G, the self-cleavage was found to be 0.71.

As to A52U U131A, the self-cleavage is 1.49. In the case of G29A U97C, the self-cleavage worked out at 1.22. For the variant G50U A51U, the self-cleavage worked out at 1.95. G106A A118U: the self-cleavage worked out at 0. Turning to A63U U131C, the self-cleavage turned out to be 1.33. In the case of A18G A47G it was 1.14. In the case of A56G A140U it was 2.1; in that of U39A A91G, 1.56. G75C A126C: the self-cleavage is 0.09. As for A95U A118U, the self-cleavage came to 0.6. Consider C45A U127C, for which the self-cleavage stood at 0.26.

Regarding A69C U132C, the self-cleavage was determined as 2.58. For the variant A54G A135G, the self-cleavage is 1.13. Regarding C16A A56G, the self-cleavage stood at 0.41. Regarding U120A A140G, the self-cleavage worked out at 1.13. In the case of U120A A140U, the self-cleavage worked out at 1.67. As for U39A A47U, the figure is 0.73; as for A67G U132A, 1.42; as for A89U U130C, 1.2. Consider A66G A86G, for which the self-cleavage amounted to 1.16. In the case of A24G G73A, the self-cleavage stood at 0.29. For the variant G28A, the self-cleavage is 1.09. Regarding A116G A134C, the self-cleavage is 0.7. In the case of A22G A51G it was 1.22; in that of A11C U37C, 0.79; in that of A59G A114G, 0.26. In the case of A11U A52G, the self-cleavage is 1.25. A54G A89U: the self-cleavage is 1.61. Turning to A30G G31A, the self-cleavage worked out at 1.61.

As to G75C U103C, the self-cleavage turned out to be 0.12. For G41A A125C, the self-cleavage was found to be 0.19.

Regarding A69G U124A, the self-cleavage amounted to 0.53. On to A4G A92U, for which the self-cleavage turned out to be 1.44. In the case of A11G A135G, the self-cleavage amounted to 1.41. Consider C16U U132C, for which the self-cleavage came to 1.11. For U43A A110G, the self-cleavage was 0.19.

U39A A78U: the self-cleavage amounted to 0.44. Consider U108C A134C, for which the self-cleavage is 0.01. For A60G A89G, the self-cleavage is 1.55. As for A60G A89C, the figure is 1.36.

On to A23U U100C, for which the self-cleavage was 2.74. Regarding A95U, the self-cleavage was 1.65.

Regarding U19C A129U, the self-cleavage came out at 1.39. For U2A A68G, the self-cleavage amounted to 0.8. With A11C A22G, the self-cleavage turned out to be 0.94. As for A92G U103A, the self-cleavage amounted to 0.8.

For A89C U130C, the self-cleavage amounted to 1.12. Consider U108C U124A, for which the self-cleavage worked out at 0.01. Take U49G U108C: the self-cleavage stood at 0.01.

In the case of U97A A126U, the self-cleavage came to 1.01. On to C32U A110G, for which the self-cleavage was 0.23.

On to U124A U139C, for which the self-cleavage came to 1.26. On to U120G U130A, for which the self-cleavage was determined as 1.2. As for C40U U120C, the figure is 1.32; as for A92G A95G, 1.46. With U39C A68U, the self-cleavage was 2.09. As for A4G U100C, the figure is 1.42. In the case of C32U A60G it was 1.38; in that of A96C A111G, 0.03; in that of A47U A69G, 0.73. On to A64U A67G, for which the self-cleavage turned out to be 1.32. Take A66G A110U: the self-cleavage turned out to be 0.78.

Take U2A A116G: the self-cleavage worked out at 0.75. As for G20A A66G, the figure is 1.21; as for A62U A116G, 1.13. In the case of A47U U87C, the self-cleavage was determined as 1.34. In the case of A22U A96U it was 1.54; in that of U49A G75C, 0.07. As for A24C A66U, the figure is 1.03. As for C128A A134G, the self-cleavage came to 1.63.

Turning to U9C A96G, the self-cleavage amounted to 1.35. For A60G A68C, the self-cleavage worked out at 1.57. For U12C A36G, the self-cleavage stood at 1.44. For C10U U127C, the self-cleavage amounted to 0.32.
